Source: patent publication US20160008398A1

What was measured:
[1] = target: CMV pp65 presented by HLA-A*0201
4-1BB (human) = 4-1BB (human) (UniProt Q07011)

Granzyme B density near the immunological synapse (fold reduction) (4-1BB (human))	Substance	T cell expansion after weekly restimulation with HLA-A*0201^+ pp65-transduced Caco-2 tumor cells [1] [fold]
–	CMV pp65-specific T lymphocytes (cells without a defined receptor)	209
2.02	dsRed-monomer-4-1 BBL fusion protein (from UniProt P41273) (ligand)	–
